Measurements reported in the nanobody polyreactivity screen of Harvey et al. (2022).

test: yeast display, Sf9 membrane polyspecificity reagent, FACS + sequencing; frameworks hold sequencing errors
Method in brief: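 Sorting gates, low and high (top ~1%), were placed on anti-HA fluorescence to track expression and on streptavidin fluorescence to track reagent binding. A clone's polyreactivity label is taken from the gate it came out of. The reagent was 10% biotinylated, detergent-solubilized Sf9 membrane, applied for 1 hour at 4 °C to galactose-induced yeast display cells.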

Sequence	polyreactivity (PSR sort gate)
QVQLVESGGGLVQAGGRLRLSCAASGFIFYFYAMGWYRQAPGKERELVAAISWSGGSPYYADSVKGRFTISRDNAKNTVYLQMNSLKPEDTAVYYCAADTRTSYYNDDYDYWGQGTQVTVSS	low polyreactivity
QVQLVESGGGLVQAGGRLRLSCAASGFISKYYAMGWSRQAQGKERELVASISRDGSTSYADSVKGRFTISRDNAKNTVYIQMNSLKPEDTAVYYCAAPSYRTRYYYWGQGTQVTVSS	high polyreactivity
QVQLVESGGGLVQAGGRLRLSCAASGFIYRPYLMGWYRQATGKEMEFVAAISGRGGSTYYADSVKGRFTISRDNAKKTVYLQMNSLKPEDTAVYYCNAVYIYTGVGYNYWGQGTQVTVSS	high polyreactivity
QVQLVESGGGLVQAGGRLRLSCAASGFTFAYYAMGGNRQSPGKERELVAAISSGGGSTYYADSEKGRFTISRDNAKNTVYLQMNSQKPEDTAVYYCAAESCSPQAWFDYWGQGTQVTVSS	high polyreactivity
QVQLVESGGGLVQAGGRLRLSCAASGFTFDYNAMGWYIQAPGKEREFVASISVSGGSTYYADSVKGRFTISRDNAKNTVYLQMNSLKPEDTAVYYCAAELTGDGTLGYDFWGQGTQVTVSS	low polyreactivity
QVQLVESGGGLVQAGGRLRLSCAASGFTFVKNAMGWYRQAPGKERELVAAISSRGGSTYYADSVKGRFTISRDNAKNTVYLQMNSLKAEDTAVYYCATERERTMGYWGQGTQVTDSS	high polyreactivity
QVQLVESGGGLVQAGGRLRLSCAASGGIFDTYVMGRYRQAPGKERELVAGISSTGGSTYYADSVKGRFTISRDNAKNTVYLQMNSLKPEDTAVYYCNAEAGGFDYYGKTYRYGDYWGQGTQVTVSS	low polyreactivity
QVQLVESGGGLVQAGGRLRLSCAASGHIFWGYAMGWSRQAPGKERELVAAITSGGNTNYADSVKGRFTISRDNAKNTVYLQMNSLKPEDTAVYYCAKRTRPWRDFDYWGQGTQVTVSS	low polyreactivity
QVQLVESGGGLVQAGGRLRLSCAASGIIFGYYALGWYRQAPGKERELVAAISSGGTTSYADSVKGRFTISRDNAKNTDYLQMNSLKPEDTAVYYCAADYDAAWYKDGYYYWGQGTQVTVSS	low polyreactivity
QVQLVESGGGLVQAGGRLRLSCAASGIIFGYYAMGWYREAPGKEREFVAAINYSGVSTYYADSVKGRLTISRDNAKNTVYLQMNSLKPEDTAVYYCAADFRIVVYGWGGSHMDYWGQGTQVTVSS	low polyreactivity
QVQLVESGGGLVQAGGRLRLSCAASGIIFRGNPMGRYRQAPGKERELVAAIARRGGRTYYADSVKGRFTISRDNAKNTVYLQMNCLKAEDTAVYFCAAGELGDYWGQGTQVTVSS	high polyreactivity
QVQLVESGGGLVQAGGRLRLSCAASGIIFRWYTMGWYRQAPGKERELVAAISTSTGSTYYADSVKGRFTISRDNAKNTVYLQMNSLKPEDSAVYYCAAVYAYWNYESYYWGQGTQVTVSS	high polyreactivity
QVQLVESGGGLVQAGGRLRLSCAASGIIFVYYAMGWYRQAPGKERELVADITRSGSSTYYADSVKGRFTISRDNAKNTVYLQMNSLKAEDTAVYFCAADNFYQAYGYWGQGTQVTVSS	low polyreactivity
QVQLVESGGGLVQAGGRLRLSCAASGIILYGYAMGWYRQAPGKARELVAAITWSGGSTYYADSVKGRFTISRDNAKNTVYLQMNSLKPEDTAVYYCAVDVHTSADASLPQEYDYWGQGTQVTVSS	low polyreactivity
QVQLVESGGGLVQAGGRLRLSCAASGINFSHKVMGWYRQAPGKERELVAAITYSGGSTYYADSVKGRFTSSRDNAKNTVYLQMNSLKPEDTAVYYCNALGVSRRDYDYWGQGTQVTVSS	low polyreactivity
QVQLVESGGGLVQAGGRLRLSCAASGISFDWYAMGWYRQAPGKERELVAAITVGASTYADSVKGRFTISRDNAKNTDYLQMNSLIPEDTAVYYCTFPVFVDYGFYTIGHDYWGQGTQVTVSS	low polyreactivity
QVQLVESGGGLVQAGGRLRLSCAASGITFWNYAMGWYRQAPGKETELVAAITGGSTYYADSVKGRFTISRDYAKNTVYLQMNSLKPEDTAVYYCNADSLFEYWDYDYWGQGTQVTVSS	low polyreactivity
QVQLVESGGGLVQAGGRLRLSCAASGITYEPYAMGWYRQAPGKERELVAAISRSGGSTYYADSVKGRFTISRDNAKNTVYLQMNSLKPVDTAVYYCNALRGTASRRGYYWGQGTQVTVSS	high polyreactivity
QVQLVESGGGLVQAGGRLRLSCAASGITYTVYAMGWYRQAPGKERELLAAISSSGSTTYADSVNGRFTISRDNAKNTVYLLMNSLKPEDTAVYDCAAEGYYRFSTAYFRLKYEYWGQGTQVTVSS	low polyreactivity
QVQLVESGGGLVQAGGRLRLSCAASGLTFASYALGWYRQAPGKERELVARISRSGGSTYYADSVKGRFTISRDNAKNTVYLQMNSLIPEDTAVYYCAADYIFRRYPVGGIYDYDYWGQGTQVTLSS	high polyreactivity
QVQLVESGGGLVQAGGRLRLSCAASGNIFHYNAMGGSRQAPGKERELVAAITWSGGNTYYADSVKGRFTISRDNAKNTVYLQLNSLKPEDTAVYYCAAEFPQRATGGRYKTEYDYWGQGTQVTVSS	low polyreactivity
QVQLVESGGGLVQAGGRLRLSCAASGNIFYAYALGWYRQAPGKERELVAAISWSGDSTYYADSVKGRFTISRDNAKNTVYLQMNSLKPEDTAVYYCAARKVTYHYQWMDYWGQGTQVTVSS	low polyreactivity

Sequence	polyreactivity (PSR sort gate)
QVQLVESGGGLVQAGGRLRLSCAASGRIFERYAMGWYRQAPGKERELVATISTSGGSTYYADSVKGRFTISRDNAKNTVYLQMNSLKPEDTAVYYCAAPYQRRRYYYWGQGTKVTVSS	high polyreactivity
QVQLVESGGGLVQAGGRLRLSCAASGRIFGYYAMGWYRQAPGKERELVAAISYRGGTTYYADSVKGRFTISRDNAKNTVYLQMNSLKPEDTAVYYCAAAAKSGLDYWGQGTQVTVSS	high polyreactivity
QVQLVESGGGLVQAGGRLRLSCAASGRIFIKNAMGWYRQAPGKESELVAAISDSGDSTYYAVSVKGRFTISRDNAKNTVYLQMNSLKPEDTAVYYCAADGADHRSEMYYWGQGTQVTVSS	low polyreactivity
QVQLVESGGGLVQAGGRLRLSCAASGRIFIYYAMGLYRQAPGKERELVAAISWGGGRTYYADSVKGRFTISRDNAKNTVYLQMNSLKPEDTAVYYCAAGVYTGQHEYDYWGQGTQVTVSS	low polyreactivity
QVQLVESGGGLVQAGGRLRLSCAASGRIFNHYAMGWYRQAPGKERELVAAITFSGGSTYYADSVKGRFTISRDNAKNTVHLQMNSLKPEHTAVYYCANRFSYRYGLQYDYWGQGTQGTVSS	high polyreactivity
QVQLVESGGGLVQAGGRLRLSCAASGRIFPWYAMGWSRPAPGKERELVAAISWSGGRTYYADSVKGRFTISRDNAKNTVYLQMNSLKPEDTAVDYCNADKWRYPLSGWWKRYDYWGQGTQVTVSS	high polyreactivity
QVQLVESGGGLVQAGGRLRLSCAASGRIFQHNTMGWYRQAPGKEREFVAAIRRSGGSTYYADSVKGRFTISRDNAKNTVYLQMNSLRPEDTAVYYCAARDYPTGTRRWGGGDSWGQGTQVTVSS	low polyreactivity
QVQLVESGGGLVQAGGRLRLSCAASGRIFSINAMGWYRQAPGKERELVAAISNRGGSTYYADSVKGRFTISRDNAKNTVYLQLNSLKPEDTAVYYCAARVATSGNYAPYYYWGQGTQVTVSS	high polyreactivity
QVQLVESGGGLVQAGGRLRLSCAASGRIFWINDMGWYRQAPGKERELVAAITWSGASTYYADSVKGRFTISRDNAKNTVYLQMNSLKPEDTAVYYCAAVIADSLYYSYDYWGQGTQVTVSS	high polyreactivity
QVQLVESGGGLVQAGGRLRLSCAASGRIFWTYAMGWYRQAPGKERELVAAISSGGSTNYADSVKGRFTISRDNAKNTVYLQMNSLKPEDTAVYYCAADRWYREYDYWGQGTQVTVSS	low polyreactivity
QVQLVESGGGLVQAGGRLRLSCAASGRIYTAYYAMGWYIQAPGKERELVASISSSGTSTYADSVKGRFTISRDNAKNTVYLQMNSLKPEDTAVYYCATRKLRTRRYDYGYWGQGTQVTVSS	low polyreactivity
QVQLVESGGGLVQAGGRLRLSCAASGRNFEPYAMGWYRQAPGKERELVAAISRSGGRTYYADSVKGRFTISRDNAKNTVYLQMNSLKPEDTAVYYCAAVGVYWYVYPHEYDYWGQGTQVTVSS	high polyreactivity
QVQLVESGGGLVQAGGRLRLSCAASGRTFGYNAMGWYRQAPGKERELVAAITYSGGRTYYADSVKGRFTISRDNAKNTVYLQMNSLKPEDTAVYYCAALTRRVKKYDYWGQGTQVTVSS	high polyreactivity
QVQLVESGGGLVQAGGRLRLSCAASGRTFSKYGMGGYRQAPGKEREFVAAISSSGDSTTYADSVKGRFTISRDNAKNAVYLQMNSLKPEDTAVSYCARQTSRYTGGERAYGYWGQGTQVTVSS	low polyreactivity
QVQLVESGGGLVQAGGRLRLSCAASGRTFTQYTMGWYRQAPGKERELVAAISSGGSTYYADSVKGRFTISRDNAKNTVFLQMNSLNPEDTAVYYCAARSYYAKSRYYYWGQGTQVTVSS	high polyreactivity
QVQLVESGGGLVQAGGRLRLSCAASGRTFYTYAMGWYRQAPGKERELVAAITSGGSTYSADSVKGRFTISRDNAKNTVYLQMNSLKPEDTAVYYCAAEFYYWRGFDYWGQGTQVTVSS	low polyreactivity
QVQLVESGGGLVQAGGRLRLSCAASGRTILSYAMGWYRQAPAKERELVAAITGSGGRKYYADSVKGRFTISRENAKNTVYLQMNSLKPEDTAVYYCATRWIKGRKMDYWGQGTQVTVSS	high polyreactivity
QVQLVESGGGLVQAGGRLRLSCAASGRTMGWYRQAPRKERELVAAITSGGGSTYYADSVKWRFTISRDNAKNTVYLQMNSLKPEDTAVYYCARTTIAQLHSIVAPHDYWGQGTQVNVSS	low polyreactivity
QVQLVESGGGLVQAGGRLRLSCAASGSIFERNVMGWYRQAPGKERELVAAITSGGSTNYADSVKGRFTISRDNAKNTVYLQMNSLKPEETAVYYCAADVPYRSRFYRYRLSGGDYWGQGSQVTVSS	low polyreactivity
QVQLVESGGGLVQAGGRLRLSCAASGSIFFDNTMGWYRQAPWKERELVASITYSGSTYADSVKGRFTISRDNAKNTVYLQMNSLKPEDTAVYYCNTESYWKVERFDYWGQGTHVTVSS	low polyreactivity
QVQLVESGGGLVQAGGRLRLSCAASGSIFHLYMGWYRQAPGKERELVAVINSSGDSTYYADSVKGRFTISRDNAKNTVYLQMNSLKPEDTAVYYCNARRRGPRYLYGYWGQGSQVTVSS	high polyreactivity
